Reference: paper PMC2789240, “Comparative structural, kinetic and inhibitor studies of Trypanosoma brucei trypanothione reductase with T. cruzi^☆” (Molecular and Biochemical Parasitology, 2010)

Biological target: the molecule itself
Experiment: SEC; 600 ug TbTryR on Superdex 200 10/300, 25 mM HEPES pH 7.5, 100 mM NaCl; mass from BioRad gel filtration standards; data not shown

B1: Trypanosoma brucei brucei trypanothione reductase (enzyme, T. b. brucei, UniProt P39051 1-492, looked up)
chain: MSKIFDLVVIGAGSGGLEAGWNAATLYKKRVAVIDVQTHHGPPHYAALGGTCVNVGCVPKKLMVTGAQYMDHLRESAGFGWEFDGSSVKANWKKLIAAKNEAVLDINKSYEGMFNDTEGLDFFLGWGSLESKNVVVVRETADPKSAVKERLQADHILLATGSWPQMPAIPGVEHCISSNEAFYLPEPPRRVLTVGGGFISVEFAGIFNAYKPPGGKVTLCYRNNLILRGFDETIREEVTKQLTANGIEIMTNENPAKVSLNTDGSKHVTFESGKTLDVDVVMMAIGRIPRTNDLQLGNVGVKLTPKGGVQVDEFSRTNVPNIYAIGDITDRLMLTPVAINEGAALVDTVFGNKPRKTDHTRVASAVFSIPPIGTCGLIEEVAAKEFEKVAVYMSSFTPLMHNISGSKYKKFVAKIVTNHSDGTVLGVHLLGDGAPEIIQAVGVCLRLNAKISDFYNTIGVHPTSAEELCSMRTPSYYYLKGEKMETLPESSL
notes: Trypanothione reductase, T. b. brucei strain S427 (MITat 1.4); complete open reading frame amplified from start to stop codon; identical at the amino acid level to genome strain 927 (GeneDB Tb10.406.0520) and to T. b. gambiense TryR; calculated subunit mass 53,156 Da; Flavoprotein: each subunit carries 1 FAD (and 1 NADPH in the crystal); In the crystal model the first residue and the last 2 …
B1 was tested, and the “stoichiometry N” value was 2.
